From PMC4314829, “Unraveling the kinetic diversity of microbial 3-dehydroquinate dehydratases of shikimate pathway” (AMB Express, 2015)

What was measured:
Settings in all cases: DHQ 0.08 to 1.0 mmol/L; assay buffer, pH and temperature not given
[1] = test system: O=C1C[C@@](O)(C(=O)O)C[C@@H](O)[C@@H]1O; assay: purified protein
[2] = substrate: O=C1C[C@@](O)(C(=O)O)C[C@@H](O)[C@@H]1O; assay: OD234 microplate assay, Lineweaver-Burk; format: biochemical, Psychromonas ingrahamii
Source text: OD234 microplate assay, Lineweaver-Burk on DHQase 3010

[3] = substrate: O=C1C[C@@](O)(C(=O)O)C[C@@H](O)[C@@H]1O; assay: OD234 microplate assay, Lineweaver-Burk; format: biochemical, Crystallibacter crystallopoietes
Source text: OD234 microplate assay, Lineweaver-Burk on DHQase 3012

[4] = substrate: O=C1C[C@@](O)(C(=O)O)C[C@@H](O)[C@@H]1O; assay: OD234 microplate assay, Lineweaver-Burk; format: biochemical, Nocardia brasiliensis
Source text: OD234 microplate assay, Lineweaver-Burk on DHQase 3014

[5] = substrate: O=C1C[C@@](O)(C(=O)O)C[C@@H](O)[C@@H]1O; assay: OD234 microplate assay, Lineweaver-Burk; format: biochemical, Streptomyces acidiscabies
Source text: OD234 microplate assay, Lineweaver-Burk on DHQase 3016

[6] = substrate: O=C1C[C@@](O)(C(=O)O)C[C@@H](O)[C@@H]1O; assay: OD234 microplate assay, Lineweaver-Burk; format: biochemical, Parageobacillus thermoglucosidasius
Source text: OD234 microplate assay, Lineweaver-Burk on DHQase 3021

[7] = substrate: O=C1C[C@@](O)(C(=O)O)C[C@@H](O)[C@@H]1O; assay: OD234 microplate assay, Lineweaver-Burk; format: biochemical, Halanaerobium hydrogeniformans
Source text: OD234 microplate assay, Lineweaver-Burk on DHQase 3024

[8] = substrate: O=C1C[C@@](O)(C(=O)O)C[C@@H](O)[C@@H]1O; assay: OD234 microplate assay, Lineweaver-Burk; format: biochemical, Acetivibrio clariflavus
Source text: OD234 microplate assay, Lineweaver-Burk on DHQase 3025

[9] = substrate: O=C1C[C@@](O)(C(=O)O)C[C@@H](O)[C@@H]1O; assay: OD234 microplate assay, Lineweaver-Burk; format: biochemical, Natranaerobius thermophilus
Source text: OD234 microplate assay, Lineweaver-Burk on DHQase 3026

[10] = substrate: O=C1C[C@@](O)(C(=O)O)C[C@@H](O)[C@@H]1O; assay: OD234 microplate assay, Lineweaver-Burk; format: biochemical, Ruminococcus champanellensis
Source text: OD234 microplate assay, Lineweaver-Burk on DHQase 3027

[11] = substrate: O=C1C[C@@](O)(C(=O)O)C[C@@H](O)[C@@H]1O; assay: OD234 microplate assay, Lineweaver-Burk; format: biochemical, Thermodesulfobium narugense
Source text: OD234 microplate assay, Lineweaver-Burk on DHQase 3028

[12] = substrate: O=C1C[C@@](O)(C(=O)O)C[C@@H](O)[C@@H]1O; assay: OD234 microplate assay, Lineweaver-Burk; format: biochemical, Metallosphaera cuprina
Source text: OD234 microplate assay, Lineweaver-Burk on DHQase 3030

[13] = substrate: O=C1C[C@@](O)(C(=O)O)C[C@@H](O)[C@@H]1O; assay: OD234 microplate assay, Lineweaver-Burk; format: biochemical, Paramagnetospirillum magneticum
Source text: OD234 microplate assay, Lineweaver-Burk on DHQase 3037

[14] = substrate: O=C1C[C@@](O)(C(=O)O)C[C@@H](O)[C@@H]1O; assay: OD234 microplate assay, Lineweaver-Burk; format: biochemical, Alcanivorax borkumensis
Source text: OD234 microplate assay, Lineweaver-Burk on DHQase 3003

[15] = substrate: O=C1C[C@@](O)(C(=O)O)C[C@@H](O)[C@@H]1O; assay: OD234 microplate assay, Lineweaver-Burk; format: biochemical, Gluconobacter oxydans
Source text: OD234 microplate assay, Lineweaver-Burk on DHQase 3007

Molecule: DHQase 3009 (Psychrobacter sp. PRwf-1)
- Km [1]: 203.24 µM
- Vmax [1]: 254 µM/min
- kcat [1]: 31.7 s⁻¹
- kcat/Km [1]: 160000 M⁻¹ s⁻¹

B1: DHQase 3010 (Psychromonas ingrahamii 37) (protein)
chain: MTQQIKLLVLNGPNLNLLGQREPEVYGSKTLDDIIKALTDEAALQNVALSHLQSNREYELIEKIHDAFEKIDFIIINPAAFTHTSVALRDALLGVNIPFIEVHLSNVHARESFRHHSYLSDIAQGVICGLGAKGYSFALQSAIGKLRNI
notes: full length, codon-optimised synthetic gene, pET28a His tag, E. coli BL21(DE3), Ni-NTA
- Km [2]: 202.55 µM
- Vmax [2]: 48 µM/min
- kcat [2]: 10.6 s⁻¹
- kcat/Km [2]: 50000 M⁻¹ s⁻¹

B2: DHQase 3012 (Arthrobacter crystallopoietes BAB-32) (protein)
chain: MGNMSEHSTGSSTRKLLVLNGPNLNLLGTREPQIYGSDTLEDAETLAARAAEAHGLAVECLQSNHEGVLIDAIHAARGTAAGIVINPGGYTHTSVALRDALSGVDLPVVEVHISNIHRREEFRHHSYISGIAVAVIAGAGISGYKFAVDLLASRL
notes: as for B1
- Km [3]: 448.50 µM
- Vmax [3]: 4000 µM/min
- kcat [3]: 185 s⁻¹
- kcat/Km [3]: 410000 M⁻¹ s⁻¹

B3: DHQase 3014 (Nocardia brasiliensis ATCC 700358) (protein)
chain: MSAPGPILVLNGPNLNMLGTRQPEVYGSATLDDVVELCRQTAERYGREIAAFQSNSEGALIDRIHRARGVESAIVINPGGLTHTSVALRDALVIPEVPIVEVHISNVHAREEFRHHSYISPIATAVVAGMGIQGYAAAIEFLVRSA
notes: as for B1
- Km [4]: 151.51 µM
- Vmax [4]: 216 µM/min
- kcat [4]: 3.83 s⁻¹
- kcat/Km [4]: 30000 M⁻¹ s⁻¹

B4: DHQase 3016 (Streptomyces acidiscabies) (protein)
chain: MPRTLANAPIMILNGPNLNLLGQRQPEIYGSDTLADVEALCVKAAATHGGTVDFRQSNHEGELVDWIHEARMDHCGIVINPGAYSHTSVAILDALNTCDGLPVIEVHISNIHKREAFRHHSYVSLRADGVIAGCGVQGYVFGVERVAALAGEGTARA
notes: as for B1
- Km [5]: 141.53 µM
- Vmax [5]: 745 µM/min
- kcat [5]: 212 s⁻¹
- kcat/Km [5]: 1.5e+06 M⁻¹ s⁻¹

B5: DHQase 3021 (Parageobacillus thermoglucosidasius) (protein)
chain: MAHLLLINGPNLNLLGKREPHIYGSTTLDSLEQELISFANEHGAALTCFQSNHEGAIIDRIHEAEGKYDGIILNAGAFTHYSYAIRDAIASISIPVVEVHISNIHAREPFRHQSVIAPVVAGQIVGFGLAGYRLAILALLEIKGRGDK
notes: as for B1
- Km [6]: 133.97 µM
- Vmax [6]: 130 µM/min
- kcat [6]: 5.33 s⁻¹
- kcat/Km [6]: 40000 M⁻¹ s⁻¹

B6: DHQase 3024 (Halanaerobium hydrogeniformans) (protein)
chain: MQKVAVIHGPNLNMLGLREPEIYGKNNLEMVNKNLKRKAKELDFEIEIMQSNHEGEIVDYLHQNFEQLDGVIINPGGLTHTSVILRDALAAVRLPVIEVHISNIHKREEFRHKSLTAAVAVGQITGLGVKGYTLALEGLKSILGREKY
notes: as for B1
- Km [7]: 526.07 µM
- Vmax [7]: 374 µM/min
- kcat [7]: 75.1 s⁻¹
- kcat/Km [7]: 140000 M⁻¹ s⁻¹

B7: DHQase 3025 (Acetivibrio clariflavus DSM 19732) (protein)
chain: MKKILIINGPNLNLLGTREKEVYGTETLDDIAKKVAEEAAKLNVNIEFFQSNHEGDIIDKIHAARGNTDAIIINPGAYTHYSIAIRDAIKAVEIPTIEIHLSNIHAREEFRSHSVIAPVCVGQICGFGSNSYILGLNAAALL
notes: as for B1
- Km [8]: 368.46 µM
- Vmax [8]: 353 µM/min
- kcat [8]: 59.6 s⁻¹
- kcat/Km [8]: 160000 M⁻¹ s⁻¹

B8: DHQase 3026 (Natranaerobius thermophilus JW/NM-WN-LF) (protein)
chain: MKIYVIHGPNINMLGNRESEHYGTQTLEELNSSIIKESESLGIEVEIFQFNSEGDIITKLQEANNYAQGVIINPGAYTHYSIAIRDAIAAISKPVIEVHISNIFNRESFRSHSVIAPVAKGQISGMGFAGYLLALNAFIKTKEG
notes: as for B1
- Km [9]: 304.54 µM
- Vmax [9]: 177 µM/min
- kcat [9]: 3.8 s⁻¹
- kcat/Km [9]: 10000 M⁻¹ s⁻¹

B9: DHQase 3027 (Ruminococcus champanellensis 18P13 = JCM 17042) (protein)
chain: MRILVIHGPNLNLLGEREPGIYGKNDLAHVNGAILTRAKELGVECEVFQSNHEGEILVRLHEARHAFDGVVLNAGAYTHYSYAIRDAIAAIRIPCVEVHISNVHAREEFRHTSVIAPACLGVVCGFGGDSYLLALEGLVRHCAGQKTL
notes: as for B1
- Km [10]: 255.54 µM
- Vmax [10]: 360 µM/min
- kcat [10]: 50.2 s⁻¹
- kcat/Km [10]: 200000 M⁻¹ s⁻¹

B10: DHQase 3028 (Thermodesulfobium narugense DSM 14796) (protein)
chain: MKKILVINGPNLNMLGTREPNIYGSITLHGLEELILNFAKELEMKVDFFQSNHEGDIIDKIHRTFDAYDAFIINPGAFTHYSYAIRDAIASITIPVIEVHLSNVHAREEFRKSSVIAPVCLGQISGLGELSYIAAIVALDKYLQKLEKRA
notes: as for B1
- Km [11]: 180.72 µM
- Vmax [11]: 69.6 µM/min
- kcat [11]: 6.88 s⁻¹
- kcat/Km [11]: 40000 M⁻¹ s⁻¹

B11: DHQase 3030 (Metallosphaera cuprina Ar-4) (protein)
chain: MFSLMKPEIVVSLPVTRPDDLNKVNKIDGLVELRLDYSTELPNPEELIPFKHKVLVTLRDKEEGGRIKYDVDFKAKYLERLNELGILYDVEASFLERRKIEYVGKIVSAHYFSSLPSTEEIDQLFRKYEGAYTIKVAVASLPGYRELLSYVSGKPNATFMPMSNDPIERLAFSLLGSKLLYTYLESPTAQGQLSYTQAKQILECIFK
notes: as for B1
- Km [12]: 92.76 µM
- Vmax [12]: 68.4 µM/min
- kcat [12]: 3.86 s⁻¹
- kcat/Km [12]: 40000 M⁻¹ s⁻¹

B12: DHQase 3037 (Paramagnetospirillum magneticum AMB-1) (protein)
chain: MLGTRQPELYGTETLADIEAACRTHADSLGLTVEFSQTNMEGELVTSIQKCRGRAVGIIINAGAYTHTSVAILDALLAAEVPAIEVHLSNIHQRDSFRHHSYVAKAAKGMICGLGSHGYILALDALARLIKGNAEA
notes: as for B1
- Km [13]: 119.97 µM
- Vmax [13]: 232 µM/min
- kcat [13]: 73.2 s⁻¹
- kcat/Km [13]: 610000 M⁻¹ s⁻¹

B13: DHQase 3003 (Alcanivorax borkumensis SK2) (protein)
chain: MITANNDKFARGPILASILVLHGPNLNLLGTREPDKYGHTTLADINQQLQEQASKAGHHLQHLQSNAEYELVECIHDAHTEGVDFIIINPAAFTHTSVALRDALLAVNIPFIEVHLSNVHARETFRHHSFFSDIAKGVICGLGAIGYALALTAALEQLDD
notes: as for B1
- Km [14]: 210.71 µM
- Vmax [14]: 80.4 µM/min
- kcat [14]: 13.5 s⁻¹
- kcat/Km [14]: 60000 M⁻¹ s⁻¹

B14: DHQase 3007 (Gluconobacter oxydans 621H) (protein)
chain: MTAPKVLSRGQMKRPLITVLNGPNLNMLGLRQPGIYGHATLDDVEQVCIQAAERLDVAIDFRQTNGEGELVSWVQECRGRADGIVINPAAYGHTSIALLDALLAVELPVIEVHISNIHRREPFRHHTYVSQAAIGVICGLGVRGYAHALQAITDMIEDEG
notes: as for B1
- Km [15]: 777.75 µM
- Vmax [15]: 146 µM/min
- kcat [15]: 77.1 s⁻¹
- kcat/Km [15]: 100000 M⁻¹ s⁻¹
